Assay [1] has as its target T1, human podoplanin on cancer cells (glioblastoma LN319, lung cancer PC-10) (human, UniProt Q86YL7 23-162, sialylated O-glycan on Thr85 (as the filing concludes for podoplanin on cancer cells)).
T1 construct: Endogenous podoplanin on cancer cell lines LN319 and PC-10; also called hPDPN; cancer-type podoplanin
T1 chain: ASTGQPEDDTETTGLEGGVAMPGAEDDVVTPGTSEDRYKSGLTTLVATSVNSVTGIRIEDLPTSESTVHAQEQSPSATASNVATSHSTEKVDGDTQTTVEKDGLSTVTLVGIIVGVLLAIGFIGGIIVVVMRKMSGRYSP
In words: flow cytometry, ExpiCHO culture supernatant on LN319 cells. As for the experimental part:
Plasmids of the H chain and the L chain of chPMab117-mG2a were introduced into ExpiCHO cell lines (product of Thermo Fisher) by lipofection and a recombinant antibody of chPMab117-mG2a was expressed in the culture supernatant. The culture supernatant was collected two days after gene introduction. It was reacted with LN 319 cells at 4° C. for 30 minutes and was then reacted further with an anti-mouse IgG-FITC antibody (product of Thermo Fisher) at 4° C. for 30 minutes. As a negative control, only a secondary antibody was used.
On the technique in general: A flow cytometer gives signals particle by particle.

The target in the next assay is T2, human podoplanin I78A (human, UniProt Q86YL7 23-162).
T2 construct: Alanine point mutant tested by flow cytometry
T2 chain: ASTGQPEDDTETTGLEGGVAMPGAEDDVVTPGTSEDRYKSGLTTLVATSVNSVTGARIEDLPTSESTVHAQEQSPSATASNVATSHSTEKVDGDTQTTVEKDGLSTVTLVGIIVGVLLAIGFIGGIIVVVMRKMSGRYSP
In words: flow cytometry, alanine scan 77-89.

The target of the next assay is T3, human podoplanin I80A (human, UniProt Q86YL7 23-162).
T3 construct: Alanine point mutant tested by flow cytometry
T3 chain: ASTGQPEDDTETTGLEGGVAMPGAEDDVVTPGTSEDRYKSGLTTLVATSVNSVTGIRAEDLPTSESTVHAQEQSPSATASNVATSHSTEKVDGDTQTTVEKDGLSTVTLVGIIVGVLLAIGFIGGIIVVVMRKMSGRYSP
Description: flow cytometry, alanine scan 77-89.

The target in the next assay is T4, human podoplanin E81A (human, UniProt Q86YL7 23-162).
T4 construct: Alanine point mutant tested by flow cytometry
T4 chain: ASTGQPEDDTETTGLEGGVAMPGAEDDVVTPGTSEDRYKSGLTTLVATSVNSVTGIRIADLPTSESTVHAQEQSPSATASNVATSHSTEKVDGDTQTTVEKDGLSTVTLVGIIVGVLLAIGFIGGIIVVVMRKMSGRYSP
In words: flow cytometry, alanine scan 77-89.

The target of another assay is T5, human podoplanin D82A (human, UniProt Q86YL7 23-162).
T5 construct: Alanine point mutant tested by flow cytometry
T5 chain: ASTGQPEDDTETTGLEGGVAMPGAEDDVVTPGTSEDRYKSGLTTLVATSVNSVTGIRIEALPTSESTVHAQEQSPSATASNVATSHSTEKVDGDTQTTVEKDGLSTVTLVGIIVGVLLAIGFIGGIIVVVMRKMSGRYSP
In words: flow cytometry, alanine scan 77-89.

In a further assay the target is T6, human podoplanin T85A (human, UniProt Q86YL7 23-162).
T6 chain: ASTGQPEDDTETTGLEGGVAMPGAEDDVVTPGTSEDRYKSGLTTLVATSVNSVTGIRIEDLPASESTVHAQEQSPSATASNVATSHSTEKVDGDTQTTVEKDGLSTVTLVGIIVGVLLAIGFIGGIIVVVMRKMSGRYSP
In words: flow cytometry, alanine scan 77-89.

We go through two molecules from patent US20210115151A1 (TOHOKU UNIVERSITY, published 2021).

B1: mouse chimeric PMab-117 (chPMab117-mG2a) (antibody, mouse IgG2a, kappa)
heavy: AVQLVESGGGLVQPKESLKISCAASGFTFSNAAMYWVRQAPGKGLEWVARIRSKPNNYATYYTDSVKGRFTISRDDSKSMVHLQMDNLKTEDTAMYYCTVGGNNYAAAYWGQGTLVTVSSAKTTAPSVYPLAPVCGDTTGSSVTLGCLVKGYFPEPVTLTWNSGSLSSGVHTFPAVLQSDLYTLSSSVTVTSSTWPSQSITCNVAHPASSTKVDKKIEPRGPTIKPCPPCKCPAPNLLGGPSVFIFPPKIKDVLMISLSPIVTCVVVDVSEDDPDVQISWFVNNVEVHTAQTQTHREDYNSTLRVVSALPIQHQDWMSGKEFKCKVNNKDLPAPIERTISKPKGSVRAPQVYVLPPPEEEMTKKQVTLTCMVTDFMPEDIYVEWTNNGKTELNYKNTEPVLDSDGSYFMYSKLRVEKKNWVERNSYSCSVVHEGLHNHHTTKSFSRTPGK
light: DVVLTQTPVAQPVTLGDQASISCRSSQSLVHSNGNTYLEWYLQKPGQSPQLLIYKVSNRFSGVPDRFIGSGSGSDFTLKISRVEPEDLGVYYCFQVTHDPFTFGSGTKLEIKRADAAPTVSIFPPSTEQLATGGASVVCLMNNFYPRDISVKWKIDGTERRDGVLDSVTDQDSKDSTYSMSSTLSLTKADYESHNLYTCEVVHKTSSSPVVKSFNRNEC
notes: tested as ExpiCHO culture supernatant; no limits stated
B1: the binding result in assay [1] is “binds”.

B2: human chimeric PMab-117 (chPMab-117) (antibody, human IgG1)
heavy: not shown
light: DVVLTQTPVAQPVTLGDQASISCRSSQSLVHSNGNTYLEWYLQKPGQSPQLLIYKVSNRFSGVPDRFIGSGSGSDFTLKISRVEPEDLGVYYCFQVTHDPFTFGSGTKLEIKRGSAAPSVFIFPPSDEQLKSGTASVVCLLNNFYPREAKVQWKVDNALQSGNSQESVTEQDSKDSTYSLSSTLTLSKADYEKHKVYACEVTHQGLSSPVTKSFNRGEC
With B2, the binding result with human podoplanin I78A, in the assay with human podoplanin I80A, in the assay with human podoplanin E81A, in the assay with human podoplanin D82A and with human podoplanin T85A was “no binding (tested: 10 µg/mL)” in each case.
